Assay: protease stability score; higher = more stable; yeast display proteolysis, trypsin and chymotrypsin;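 also: relative to predicted unfolded state with 0 unfolded-like and 1 meaning tenfold more protease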

Sequence	protease stability score
SEEEHHAKKIAEDFLRWFITGDEDVLSHYADPDVRSRIGDKHHHGREELRRVMERLVRELRIKEIRIERYEVQGEKAILDSRVRGDVNGVEVEVRQIVIVVVIDGRLKSMELRLG	0.516
DEEHHDARRIIEEFITLLKTGDEENLDEYLDPNVRIEFNGRDLHGMEWFLHFLREIRFRDDDHKRIQVKVINGQVHILIKMHVDGVWDGRRKISDVHLHFTVVKVDGRWRFTSIHVHIE	1.35
SEEEEDMRKAHEFVDKLIHTGDEDETRRYADPNVLVTINGRRWVGRDDYVEVLREILHRADHVHLHEKSIRIVDGVVQINSNLFIKQGDKEIHLDIRFHIRKVNGRWDMKRMEIR	1.64
DKQHEDIRRFMEEFLNAVTTGDEDVLSRLHDPHARFRLHQGEKHDEKHGRESWLKWMSEIRIHHIEIEHIDVQGDYTLMIVHSDGTIDGVRMEWESRIILYVYNGKLKEVEVRIH	0.691
SEEERLAEHYYRETIELITTGDWRKLLELFDPDARLVIGDKTYHGMDTIIKIWEELRMHIRDVHFHHVSVIDGRIHLDVVVDVTKNIDGVRIRTTHRVHIIMEKIDGKWFVREIRIK	2.38
SELDENVKRITDIFIHAILTGDEHKIRKLLDPHVRTVVDGVEYIGREWFAEWVKHMRIDDHRIKTIEIRNQGDYAHVHIHGRTLGEYDGKHSTVNMFIHMHFVKFDGKWFVHELNVHII	2.06
DEDHQASRLVFELLDRAWKTGDEQILNEMMDPHVKVVFNGVELHGRSALERLMKELRIDTLHLDHTEIYDGRMETEGKVDGEYNGRTLHHITKIRFEKIDGRWVEREVVIK	0.815
SEDEEWVSLLATLILRVLLTGDEDIWKKLADPNTIHDIGEKHFHGREEIARFWMELRIKSFHVRDMDVVGDFFHIRTHMDVSIDGKDIRTDVEIHILIINGRVKRQRFEFH	0.404
SEDEEWAKRMADNILEFLNTGDFREFSKELDPNTILRIDGREIHGMELVETHLEHARMRVDDWEIRSVRSVNGKLDVDMRLDGKLRFDGKEHYRKTESILIILKVDGKWRIHNIHVR	1.07
EEDDEILEKAIRLHEHMLRTGDPREFWELADPHYKLNIGDKHIHGRETLLRHTLHKIEEYGFKHSRFVPKDWELQGDKIHLRGELILHFNGREHRYDYHIEAIKVNGQWVLHRIDIQ	1.23
DEDTEKAEKFVHSFLMAMLTGDEEELWKYLDPRVRTIIGDKHYHGREQTKKAWEELGIDHSDVERFHVHIQGDKVEVHIDLRVHVNGRSYDVHIILIVTKINGKWYIDTLIFRKV	1.44
DEEHHLAKELVRLLQEALSTGDEDEVKRLIDPDYRLIIGEFIFHGREDLERWLHHARVSVKDSHLRHVKVQGDKVEINGERNLIVIIDGKKIERKHRLHLIIIKVDGRWFMESEKYD	1.01
DEEDKNTHEFARRIIESWVTGDWKDLHELIDPHARLILDVGNKKEIYHGREEVKRRLLREIEKFKNVRFEIRDLHVVGDKVDAEVTLHIDGKDIEIHIHLLIVNGKVKEIRLHYH	2.27
SEEEEQSRIAIELVKEVHDTGDEHLLKRLMDPNAKVDIGDKTHHGREIFSHLVHRWFHTLGVDHVKIHDLDFQGDFMIIHMVEVIGDKHVHVHIYTLKVNGRWYIRHLRVERR	0.967
SEDQEEAEHVFEQWIRVLTTGDEETAHKMADPNTRMHFNGKDIHGMDTIAKEFHDLGITLQSIRMRHVERQGDKIHIHSRRTFEVNGVHLNTEVHHSLVKIDGRWTFQHTYVH	0.086
SSEEHDAKNMHKMFREAMMTGDEDLLKNLLDPHVRLTFNGKDFHGWDRVYELFRKRLEHLGITWKDWDLHIIETQGDKVELNSTLHGRVGDKHVDDHTTLFIRKIDGQWVLTEVRIG	1.46
DEDDRHSERMSEYMIKVWMTGDEDAEKRLFDPHARIDVDGQEFIGREELHKISHEHLRKLGFDHFHVRHVELRLIDGKAHLSLDTEVRVGDFKFETSIYNNFEKVNGKWEIRELQVRIR	1.2
SEEEKLQREMSKRWIEEVFTGNEEVFEQLADPNTIIDINGQHLHGMETFSKWSREHIKKLGWTQFDIKMRDSKVIGNKAKLDLELHVNGKVVKVEVNLEVIDGRIKKIEERHH	-0.143
DEHREFAKHVLEALVRALETGDEDTIRELFDPNYRIEIGDKTVIGRKYWELFIRRVDHIEVHIIIRDFDVQGNKVIIRGDSHIHLNYDGRTLDIQHHVNFVIRKVDGKWVFHSEHFI	1.79
DEEERIAKVMLKIVEKDLHTGNFETLFHLMDPHMRLEYGDKHHHGREEAYRELLEIWEELGANHYHITHRHVRLIGDKIRIHIYSIVRFNGREHHLHIDLIVTKIDGRWVMHRIIIELK	0.723
SEEEKEARRILTHFREVLHTGDEHALLELMDPNVRFILHDENHTVENHGMENMVTSLRKFGFDVIKRVHDKEHHLQGDKIKFHVETLGEINGREFEVEVQIRLYVVDGVLKWSEIIIH	1.1
DEDEELDRKFTTLFLHLWETGDEDTMRDLLDPDVRLLIIYNGRHIEVHGREHMSKFLKDFWRKFKNLRIHVKHVEAIDGVVHISGETRFDGRSTLVQIDIDVVDGRIKSERYIFR	1.76
SEDHLEARETVTEELRARQTGDERRLDELIDPNTRLEINGKEVHGMEQIIEETRRLGVDVVEIRLERHDRFNGVIHVRGRLHYNWNGKSIDHETELIVYKVDGQWIVHSIHVL	1.05
SEDEEFMRHKSELYLEMLKTGDEEELERLFDPNVRLHIGDKNQHGREQFSHFFSKLHKELGVDHLSFEHIHLEVVNGRLIIIMRVHLHVGDKVHDREISIDASKVDGQWLVQSVHIHVR	0.121
TEDEENVIEATRIFNRVLETGDEDSLKRLLDPNVRVNFDGVELIGWEDFLKFVFEWRKKAGITQVKSEPRDMDLQGNKVHNETILHINGRTFETRLVHEKVNGRWIARSIRFS	1.21

Reference: the NTF2 design screens of Basanta et al. (2020)
